Assay results as given in IntAct's records for PubMed 35107372.

B1: Nucleolar RNA helicase 2 (Homo sapiens), Q9NR30 (parent)
chain: MPGKLRSDAGLESDTAMKKGETLRKQTEEKEKKEKPKSDKTEEIAEEEETVFPKAKQVKKKAEPSEVDMNSPKSKKAKKKEEPSQNDISPKTKSLRKKKEPIEKKVVSSKTKKVTKNEEPSEEEIDAPKPKKMKKEKEMNGETREKSPKLKNGFPHPEPDCNPSEAASEESNSEIEQEIPVEQKEGAFSNFPISEETIKLLKGRGVTFLFPIQAKTFHHVYSGKDLIAQARTGTGKTFSFAIPLIEKLHGELQDRKRGRAPQVLVLAPTRELANQVSKDFSDITKKLSVACFYGGTPYGGQFERMRNGIDILVGTPGRIKDHIQNGKLDLTKLKHVVLDEVDQMLDMGFADQVEEILSVAYKKDSEDNPQTLLFSATCPHWVFNVAKKYMKSTYEQVDLIGKKTQKTAITVEHLAIKCHWTQRAAVIGDVIRVYSGHQGRTIIFCETKKEAQELSQNSAIKQDAQSLHGDIPQKQREITLKGFRNGSFGVLVATNVAARGLDIPEVDLVIQSSPPKDVESYIHRSGRTGRAGRTGVCICFYQHKEEYQLVQVEQKAGIKFKRIGVPSATEIIKASSKDAIRLLDSVPPTAISHFKQSAEKLIEEKGAVEALAAALAHISGATSVDQRSLINSNVGFVTMILQCSIEMPNISYAWKELKEQLGEEIDSKVKGMVFLKGKLGVCFDVPTASVTEIQEKWHDSRRWQLSVATEQPELEGPREGYGGFRGQREGSRGFRGQRDGNRRFRGQREGSRGPRGQRSGGGNKSNRSQNKGQKRSFSKAFGQ

Variants of: B1
Conditions: with ncap_sars2 N

**Q.** S375L;A376E was tested. Which “effect of a mutation on the interaction” value did it give?
**A.** with no effect

**Q.** D339H;E340G was tested. Which “effect of a mutation on the interaction” value did it give?
**A.** with no effect
